Results published in paper PMC8960284 (Cell Reports Methods, 2022).

How the values were obtained:
Test in all cases: FRET or BRET
[1] = target: wild-type FUS tagged with mVenus-mCherry at the C terminus (FUS-VC) (UniProt P35637)
[2] = target: mutant Huntingtin exon1 (mHttex1) with a polyglutamine stretch of Q71, fused to mVenus-mCherry (Q71-VC)
[3] = target: mutant Huntingtin exon1 with 39 glutamines, fused to mVenus-mCherry (Q39-VC)
[4] = target: mutant Huntingtin exon1 with 54 glutamines, fused to mVenus-mCherry (Q54-VC)
FRET or BRET = target: the molecule itself

## wild-type FUS tagged with mVenus-mCherry at the C terminus (FUS-VC) (from UniProt P35637 1-526) (natural protein)
[1]
  increase of FRET/donor ratio in foci over the dispersed state: 0.06

## mutant Huntingtin exon1 (mHttex1) with a polyglutamine stretch of Q71, fused to mVenus-mCherry (Q71-VC) (domain or fragment)
[2]
  FRET/donor ratio in foci: 1.3 to 1.4
  FRET/donor ratio of the final foci: 1.48

## mutant Huntingtin exon1 with 39 glutamines, fused to mVenus-mCherry (Q39-VC) (domain or fragment)
[3]
  FRET/donor ratio of the final foci: 1.6

## mutant Huntingtin exon1 with 54 glutamines, fused to mVenus-mCherry (Q54-VC) (domain or fragment)
[4]
  FRET/donor ratio of the final foci: 1.53

B1: FUS R521C tagged with mVenus-mCherry at the N terminus (VC-FUS_(R521C)) (natural protein)
chain: MASNDYTQQATQSYGAYPTQPGQGYSQQSSQPYGQQSYSGYSQSTDTSGYGQSSYSSYGQSQNTGYGTQSTPQGYGSTGGYGSSQSSQSSYGQQSSYPGYGQQPAPSSTSGSYGSSSQSSSYGQPQSGSYSQQPSYGGQQQSYGQQQSYNPPQGYGQQNQYNSSSGGGGGGGGGGNYGQDQSSMSSGGGSGGGYGNQDQSGGGGSGGYGQQDRGGRGRGGSGGGGGGGGGGYNRSSGGYEPRGRGGGRGGRGGMGGSDRGGFNKFGGPRDQGSRHDSEQDNSDNNTIFVQGLGENVTIESVADYFKQIGIIKTNKKTGQPMINLYTDRETGKLKGEATVSFDDPPSAKAAIDWFDGKEFSGNPIKVSFATRRADFNRGGGNGRGGRGRGGPMGRGGYGGGGSGGGGRGGFPSGGGGGGGQQRAGDWKCPNPTCENMNFSWRNECNQCKAPKPDGPGGGPGGSHMGGNYGDDRRGGRGGYDRGGYRGRGGDRGGFRGGRGGGDRGGFGPGKMDSRGEHRQDCRERPY
FRET or BRET
  increase of FRET/donor ratio in foci over the dispersed state: 0.15
